The text below walks through data of CN115850477A (SUZHOU SHALI BIOTECHNOLOGY CO LTD, dated 2023).

The target of test [1] is Human 4-1BB/TNFRSF9 Protein, His Tag (ACRO Biosystems) (human) (UniProt Q07011). As to the kind of experiment: ELISA, coated 4-1BB-his, scFv clone supernatant.
In test [2] the target is T1, Human 4-1BB/TNFRSF9 Protein, His Tag (ACRO Biosystems) (human, UniProt Q07011 24-186).
T1 construct: Bought from ACRO Biosystems; also called 4-1BB-his; not shown: His tag
Put plainly: ELISA, coated Human 4-1BB His Tag 1 ug/ml, antibody from 10 ug/ml in two-fold dilutions.

T1 sequence (Q07011 24-186 limits assumed): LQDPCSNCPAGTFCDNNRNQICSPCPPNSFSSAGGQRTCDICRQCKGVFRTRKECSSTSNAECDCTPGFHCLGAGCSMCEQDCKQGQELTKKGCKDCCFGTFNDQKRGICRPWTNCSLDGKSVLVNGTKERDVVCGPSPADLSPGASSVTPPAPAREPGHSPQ

B1: GT1C8 (scFv克隆, 初筛离心上清) (scFv, V domains shown)
VH: QMQLQESGPSLVKPSQTLSLTCSVTGDSITSGYWTWIRKFPGNRLEYMGFKSYSGSTYYNPSLKSRISITRDTSKNQYYLQLNSVTTEDTATYYCARSLLWLGAMDYWGQGTSVTVSS
VL: DIVMTQSHKFMSTSVGDRVSITCKASQDVGTAVAWYQQKPGQSPKLLIYWASTRHTGVPDRFTGSGSGTDFTLTISNVQSEDLADYFCQQYSSYPYTFGGGTKLEMKR
With B1, in test [1], the OD450 worked out at 1.12.

B2: GT1C8 huIgG1型抗体 (antibody, V domains shown)
VH: B1 VH
VL: B1 VL
notes: GT1C8 is the only antibody described, but the name GT1C8 is never tied to these numbers in words; also called GT1C8的huIgG1抗体; GT1C8克隆hIgG1形式抗体
In test [2], B2 returned a concentration for a half-maximal effect (EC50) of 0.102 µg/mL.
